Assay results taken from publication PMC3616969.

Columns and labels:
[1] = molecular target: HIV-1 AD8 gp41 (wild type), cut from Env gp160 (HIV-1 AD8)
[2] = molecular target: HIV-1 AD8 gp41 K601N (HIV-1 AD8)
[3] = molecular target: HIV-1 AD8 gp41 K601D (HIV-1 AD8); assay: gp120 shedding assay (radioimmunoprecipitation of cell lysates and culture supernatants); 293T cells transfected with Env vectors, 35S pulse 45 min, chase 5-6 h; cell lysates and clarified supernatants immunoprecipitated with IgG14 and protein G Sepharose; reducing SDS-PAGE, phosphorimager; gp120-shedding index against WT
[4] = molecular target: HIV-1 AD8 gp41 K601N (HIV-1 AD8); assay: as above
[5] = molecular target: HIV-1 AD8 gp41 (wild type), cut from Env gp160; assay: radioimmunoprecipitation with HIVIG of metabolically labelled cell lysates and supernatants, SDS-PAGE, phosphorimager scanning

Chain of C34, HR2-based fusion inhibitor peptide (P03375 628-661): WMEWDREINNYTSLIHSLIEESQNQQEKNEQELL

Substance	other: gp120-shedding index [5]	other results
C34, HR2-based fusion inhibitor peptide	–	IC50 of C34 for inhibition of cell-cell fusion by WT Env (luciferase) [1]: 100 nM; IC50 of C34 for inhibition of cell-cell fusion by ΔN139INN/K601N Env (luciferase) [2]: 100 nM
HIV-1 AD8 gp120 (wild type), cut from Env gp160 (natural protein)	–	gp120 shedding, fold with respect to WT [3]: 6.8 fold; gp120 shedding, fold with respect to WT [4]: 4.4 fold
HIV-1 AD8 gp120 (wild type), cut from Env gp160 N160Q	0.7	–
HIV-1 AD8 gp120 (wild type), cut from Env gp160 S143N	0.6	–
HIV-1 AD8 gp120 (wild type), cut from Env gp160 S144N	0.6	–
HIV-1 AD8 gp120 (wild type), cut from Env gp160 S158N	3.6	–
HIV-1 AD8 gp120 (wild type), cut from Env gp160 S188N	1.6	–
HIV-1 AD8 gp120 (wild type), cut from Env gp160 T138N	0.5	–
HIV-1 AD8 gp120 T138N (natural protein)	–	gp120-gp41 association, fold improvement with respect to K601D [3]: 2 fold
